These results are taken from article PMC7794244, “Development of a structural epitope mimic: an idiotypic approach to HCV vaccine design” (NPJ Vaccines, 2021).

Assay [1] has as its target AP33 heavy chain mutant T97 (human-mouse chimeric AP33, residue changed to alanine) (mouse | human). Kind of assay: ELISA.
Assay [2] deals with AP33 light chain mutant D94 (human-mouse chimeric AP33, residue changed to alanine) (mouse | human). Kind of assay: ELISA. In general terms: An ELISA detects its analyte on a solid surface through an enzyme-linked reagent.
Assay [3] deals with AP33 light chain mutant N92 (human-mouse chimeric AP33, residue changed to alanine) (mouse | human). As to the kind of experiment: ELISA.
Assay [4] concerns the target AP33 heavy chain mutant I95 (human-mouse chimeric AP33, residue changed to alanine) (mouse | human). As to the kind of experiment: ELISA.
For assay [5], the target named is AP33 light chain mutant Y28 (human-mouse chimeric AP33, residue changed to alanine) (mouse | human). Kind of assay: ELISA.
Assay [6] concerns the target AP33 light chain mutant V93 (human-mouse chimeric AP33, residue changed to alanine) (mouse | human). Kind of assay: ELISA.
Assay [7] concerns the target AP33 light chain mutant N30 (human-mouse chimeric AP33, residue changed to alanine) (mouse | human). Kind of assay: ELISA.
Assay [8] concerns the target AP33 heavy chain mutant Y53 (human-mouse chimeric AP33, residue changed to alanine) (mouse | human). As to the kind of experiment: ELISA.
Assay [9] has as its target broadly neutralizing anti-E2 murine monoclonal antibody AP33 (IgG). As to the kind of experiment: competition ELISA. The conditions noted are these: peptide 10 µg/ml (highest concentration); binding to E2661 read; parent: est. 5; read off a plot.
In the next assay the target is MAb ALP98. Kind of assay: ELISA. The conditions noted are these: parent: est. 100; read off a plot.
For assay [10], the target named is soluble HCV E2 that lacks the transmembrane domain (E2_(661)), monomeric (Hepatitis C virus genotype 1a strain …, UniProt P27958). Kind of assay: SPR. The conditions noted are these: both partners purified.

The term Kd denotes the concentration at which binding is half-saturated. Usually koff stands for a measure of how fast the partners let go of each other. Lower therefore signals slow dissociation. As a reminder, the kon is a measure of how fast the partners come together. A higher kon goes with fast association.

With “E2 (as tested on wild type and mutant AP33 in Table 1) (from UniProt P27958 384-746) (natural protein)”, the Relative strength of binding (%) (% of binding to WT AP33) worked out at 101 in assay [1]; 74 in assay [2]; 60 in assay [3]; 10 in assay [4]; 112 in assay [5]; 79 in assay [6]. For the same molecule, the Relative strength of binding (%) (% of binding to WT AP33) in assay [7] was 89; in [8] it was 100.
With E2 412-423 WT peptide W420R, the other: E2 Binding (%) remaining after peptide competition in assay [9] is 86%.
Turning to E2 WT S424A, in the assay with MAb ALP98, the percent of parent came to 96%.
Consider E2 WT I414A, for which the percent of parent with MAb ALP98 came out at 96%.

B1: broadly neutralizing anti-E2 murine monoclonal antibody AP33 (IgG) (antibody, V domains shown)
VH: EVQLQESGPSLVKPSQTLSLTCSVTGDSITSGYWNWIRKFPGNKLEYMGYISYSGSTYYNLSLRSRISITRDTSKNQYYLQLNSVTTEDTATYYCALITTTTYAMDYWGQGTSVTVSS
VL: NIVLTQSPVSLAVSLGQRATISCRASESVDGYGNSFLHWFQQKPGQPPKLLIYLASNLNSGVPARFSGSGSRTDFTLTIDPVEADDAATYYCQQNNVDPWTFGGGTKLEIK
In [10], B1 had a Kd of 3.4 nM, a koff of 0.000542 s⁻¹ and an association rate constant (kon) of 160000 M⁻¹ s⁻¹.
